According to patent US20200291354A1 (Novartis, published 2020):

Target: T1, PD1 (Programmed Death 1) (human, UniProt Q15116 25-288)
T1 construct: whole, on cells
Test: flow cytometry on T cells electroporated with PD1 and minibody mRNA; biotinylated goat anti-human IgG1 and streptavidin-PE
Excerpt: FIG. 8 is a panel of images and graphs showing detection of PD1 minibody or PD1-PDL1 bispecific minibody bound on T cells. T cells were electroporated with mRNA (PD1, PD1 and PD1 minibody, and PD1 and PD1-PDL1 bispecific minibody) as specified. The T cells were stained with biotinylated goat anti-human IgG1 and then streptavidin-PE. Biotin anti-human IgG1 specifically detected PD1 minibody or PD1-PDL1 bispecific minibody […] when the cells expressed PD1. PD1 expressed on the T cell acted as an anchor for the secreted antibodies to bind that would otherwise not interact with the T cell.
Flow Cytometry Analysis. Tumor cells were cultured in the absence or presence of IFN-γ (R&D systems, Minneapolis, Minn.) at 20 ng/m1 for 24 hrs before the cells were harvested for staining with PDL1-PE (BioLegend). Live cells were gated on the live cell population by forward scatter/side scatter (FSC/SSC) and then PDL-1 positivity by PE expression. K562 cells and K562 PDL1/CD19 cells were stained with PDL1-PE (BioLegend, San Diego, Calif.) and CD19-PacBlue (Life Technologies, Carlsbad, Calif.). […]
FIG. 8 is a panel of images and graphs showing detection of PD1 minibody or PD1-PDL1 bispecific minibody on T cells. […] Biotin anti-human IgG1 specifically detected PD1 minibody or PD1-PDL1 bispecific minibody when the cells expressed PD1. […]

T1 sequence (Q15116 25-288): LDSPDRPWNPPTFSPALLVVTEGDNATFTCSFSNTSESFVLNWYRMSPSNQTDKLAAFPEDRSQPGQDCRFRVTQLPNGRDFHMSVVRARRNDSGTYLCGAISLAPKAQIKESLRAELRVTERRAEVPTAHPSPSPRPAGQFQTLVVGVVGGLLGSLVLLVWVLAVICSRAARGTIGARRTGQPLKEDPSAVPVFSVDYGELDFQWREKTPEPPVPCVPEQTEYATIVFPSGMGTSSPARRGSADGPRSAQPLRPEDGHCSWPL

B1: PD1 minibody (other)
chain: QVQLQESGPGVVKPSGTLSLTCAISGGSIGSGGSIRSTRWWSWVRQSPGKGLEWIGEIYHSGSTNYNPSLKSRVTISLDKSRNHFSLRLNSVTAADTAVYYCARQDYGDSGDWYFDLWGKGTMVTVSSGGGSGGGSGGGSGGGSNFMLTQPHSVSESPGKTVTISCTRSSGSIASNSVQWYQQRPGSSPTTVIYEDNQRPSGVPDRFSGSIDSSSNSASLTVSGLKTEDEADYYCQSSDSSAVVFGSGTKLTVLEPKSCDKTHTCPPCGGGSSGGGSGGQPREPQVYTLPPSRDELTKNQVSLTCLVKGFYPSDIAVEWESNGQPENNYKTTPPVLDSDGSFFLYSKLTVDKSRWQQGNVFSCSVMHEALHNHYTQKSLSLSPGK
notes: Minibody: single chain VH-linker-VL-hinge-CH3, secreted by T cells electroporated with its mRNA; Variable regions are from PD1-17 of U.S. Pat. No. 7,488,802; also called PD1 minbody
B1: binds.
